Our source for the K (1/2max)^II (concentration of BiP, K (1/2max)^III (concentration of BiP and stoichiometry N values is PMC4608358.

The target of experiment [1] is wildtype hamster BiP, N-terminally hexahistidine-tagged (hamster) (UniProt G3I8R9). The experiment in a line: native gel or EMSA; purified BiP diluted to a series of concentrations, equilibrated 48 hr at room temperature, native-PAGE immunoblot; share of species II and III against concentration; crude estimate.
The target is the same in experiment [2]. Put plainly: SEC-MALS; wildtype BiP 90 µM, Superdex 200 Increase 10/300 in HKM, room temperature. For orientation: SEC sorts molecules by how far they enter the pores of the column.

Several values for one entry are separate records, joined by “and”; a condition that tells them apart may be missing. Equal values may be shown once.

Chain of wildtype hamster BiP, N-terminally hexahistidine-tagged, G3I8R9 19-654 (natural protein; other documents disagree on this pair) (G3I8R9 19-654): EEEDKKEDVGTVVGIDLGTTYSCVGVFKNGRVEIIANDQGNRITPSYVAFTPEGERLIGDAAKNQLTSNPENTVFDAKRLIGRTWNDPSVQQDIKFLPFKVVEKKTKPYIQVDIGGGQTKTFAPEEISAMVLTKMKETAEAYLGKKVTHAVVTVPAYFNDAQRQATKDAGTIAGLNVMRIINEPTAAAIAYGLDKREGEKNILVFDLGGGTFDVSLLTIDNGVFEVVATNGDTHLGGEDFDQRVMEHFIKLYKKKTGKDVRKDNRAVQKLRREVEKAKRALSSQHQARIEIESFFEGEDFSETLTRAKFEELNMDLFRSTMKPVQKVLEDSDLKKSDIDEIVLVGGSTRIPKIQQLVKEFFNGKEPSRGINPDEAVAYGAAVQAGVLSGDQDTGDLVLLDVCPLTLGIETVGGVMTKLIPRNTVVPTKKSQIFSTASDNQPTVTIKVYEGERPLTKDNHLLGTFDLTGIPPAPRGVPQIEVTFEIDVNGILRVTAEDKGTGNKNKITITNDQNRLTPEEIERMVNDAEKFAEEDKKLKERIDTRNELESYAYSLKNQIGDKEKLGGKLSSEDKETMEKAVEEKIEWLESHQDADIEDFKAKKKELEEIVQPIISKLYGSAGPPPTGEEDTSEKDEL

Usually stoichiometry N stands for the number of molecules, sites or subunits per partner or assembly. Take “wildtype hamster BiP, N-terminally hexahistidine-tagged, G3I8R9 19-654 (natural protein; other documents disagree on this pair)”: in experiment [1], the K (1/2max)^II (concentration of BiP at which half of species II dissociated) was 0.45 µM and the K (1/2max)^III (concentration of BiP at which half of species III dissociated) is 0.74 µM. Besides, the stoichiometry N in experiment [2] is 2 and 3.
